Reference: article PMC5143173

What was measured:
[1] = molecular target: AIF H454A (human) (UniProt O95831); experiment: SAXS
[2] = molecular target: AIF S480A (human) (UniProt O95831); experiment: SAXS

Row | stoichiometry N [1] | stoichiometry N [2] | Substance
1 | 2 |  | AIF H454A (from UniProt O95831 78-613) (domain or fragment)
2 |  | 2 | AIF S480A (from UniProt O95831 78-613) (domain or fragment)
